Reference: the DeepSol protein solubility set

Assay: soluble on expression in E. coli; label from the status in PepcDB or PDB records

Row | Sequence | soluble on expression in E. coli
1 | MTLMVPFKQVDVFTEKPFMGNPVAVINFLEIDENEVSQEELQAIANWTNLSETTFLFKPSDKKYDYKLRIFTPRSELPFAGHPTIGSCKAFLEFTKNTTATSLVQECKIGAVPITINEGLISFKAPMADYESISSEMIADYEKAIGLKFIKPPALLHTGPEWIVALVEDAETCFNANPNFAMLAHQTKQNDHVGIILAGPKKEAAIKNSYEMRAFAPVINVYEDPVCGSGSVALARYLQEVYKFEKTTDITISEGGRLKRNGLMLASIKKEADNSTSYYIAGHATTVIDGKIKVHHHHHH | soluble
2 | MTNIWKKNYETAKEVEEFVKKAYELGDVTELELLRAKRERSIAEVKLKVSRSKYEASLKELSRLLAKEVRDVEGELSAGVAMKEVNIDTLPVVLSIKKKIEAIDRQIQLEKALAKPKLATGFVVEESEEGYYGLRGSLTLELPLFYRREGEILQNIAMKKALKRRLEAELLKVKSRLESVKIRLETLQKELEKLEREVIPRAREELALAIKSYKLKAITLLELSDVRRKYYELLINRAELLLDIHRTYSEFIEIGGWRR | not soluble
3 | EMYHHKKVLVLGLARSGVSAATIMHKLGAFVTVNDQKPFSENPEAQGLLEQGIKVICGSHPIELLDEGFELVIKNPGIPYNNPMIEKALKLKIPVI | not soluble
4 | MKVAGTSAPPETAPAASRPGLRELKKQRTRDLLLRSALELFTERGYEETTVDDIAEAADVSQRTFFRYFASKEDAAFFVARLAESHFVRAVLARPPEEAPLDALRRALAESWSTIGEAVEQLVPLELHMRFYRVIESTPALLAAHLRRATELEEEIARVVAVREGLDVDTDPRPRVIVAVFGAVMRVTERIWSARDDASLAALRDLTADYLDQVAPALTGNWRRAET | soluble
5 | MTESDDHKLVLAISSRALFDLRDSHAVYMAEGVEAYRKYQIEHEDEILERGDAFTLVEKLLNLNASLSKARVEVVLVSRNSADTGLRVFNSIQHYGLDIARAAFAGGRSPYPYLAAFGCHLFLSTHAEDVRSALDAGFAAATILSGGARRAASAELRIAFDGDAVLFSDESERVYQSGGLAAFQASERESAREPLRGGPFKPFLAALNQLQREFPDASCPIRTALVTARSAPAHERVIRTLREWDIRLDESLFLGGLQKSAFLEAFAADVFFDDQPGHCEKAREVVATGHVPHGISNEIIPFDGGGAAALEHHHHHH | not soluble
6 | GMTYELSTDREFDLIAIGRACIDLNAVEYNRPMEETMTFSKYVGGSPANIVIGSSKLGLKAGFIGKIADDQHGRFIESYMRGVGVDTSNLVVDQEGHKTGLAFTEIKSPEECSILMYRQDVADLYLSPEEVNEAYIRRSKLLLVSGTALSKSPSREAVLKAIRLAKRNDVKVVFELDYRPYSWETPEETAVYYSLVAEQSDIVIGTREEFDVLENRTEKGDNDETIRYLFKHSPELIVIKHGVEGSFAYTKAGEAYRGYAYKTKVLKTFGAGDSYASAFLYALISGKGIETALKYGSASASIVVSKHSSSDAMPSVEEIEALIEKDETITIA | soluble
7 | MGSDKIHHHHHHVTHKDMEYALDRVLAGSEKRSRSLVEEEREVVAYHEAGHALVGWMLEHTDALLKYEISIFRQKFRFPLKPLKSRRKVHFLREFLCNFPQRILENFKKIQKSYSKIQIFHQKFTQNIKKLKFPVLGEFLKFPANNSSEFLKNLKNFIKKIFFFEIFGPKLPQKVTIIPRTSAALGFAQYSPRDKHLFSKDELFDRMCMMLGGRCAENLKFGRATSGAQDDLQKVTKSAYAQVKLYGMSSIVGPLSFPNTEGFQIKPYSKKFASTFDQEATLIVAKANEATTDLIKNNMDKLETIAQALLKREVLNYEDVKKL | not soluble
8 | GMLESTKQFLKKYNINDRVLKLYETAMNDIQNQFKILDDIREFNQLKVLNAFQEERISEAHFTNSSGYGYGDIGRDSLDAVYARVFNTESALVRPHFVNGTHALGAALFGNLRPGNTMLSVCGEPYDTLHDVIGITENSNMGSLKEFGINYKQVDLKEDGKPNLEEIEKVLKEDESITLVHIQRSTGYGWRRALLIEDIKSIVDCVKNIRKDIICFVDNCYGEFMDTKEPTDVGADLIAGSLIKNIGGGIAPTGGYLAGTKDCIEKTSYRLTVPGIGGECGSTFGVVRSMYQGLFLAPHISMEALKGAILCSRIMELAGFEVMPKYDEKRSDIIQSIKFNDKDKLIEFCKGIQTGSPIDSFVSCEPWDMPGYTDQVIMAAGAFIQGSSIELSADAPIREPYIAYLQGGLTFDHAKIGILIALSRIVK | soluble
9 | SKKGGKRFEIACYKNKVMSWRSGAEKDLDEVLQTNTVFVNVSKGQVAKKEDLSNAFGTDDLTEICKQILSKGELQVSDKERQSQLEQMFRDIATIVAEKCVNPETKRPYTVNLIERAMKDIHFSVKANKSTKQQALEVIKQLKESIQIQRAHMRLRFVLPAKDGKRLKEKLKPLIKAVENEDFDDQLEMVCLIDPGCFRDIDELIRCETKGKGTLEVLSLKDVEEGDEKLE | soluble
10 | MQAKVHVKKGDTVLVASGKYKGRVGKVKAVLPRKMAVIVEGVNLVKKAVRPSPKHPQGGFVEQEAPLHASKVRPICPACGKPTRVRKKFLEDGRKIRACAKCGGSLDVEELEHHHHHH | not soluble
11 | MKLGILHFTDSHIKSATDWILSEFSSLVASVKTIYEECDRIYIVFTGDVVYSGSEEEYILASKFLNSIRSLLKTLYKDKVYEQIIFTPGNHDCNFNMDRQARKML | not soluble
12 | AHHHHHHGSTHIFPEINSISSLLLLYNGRVLANIHDRTIKKVIGFEAIFRDRVIRNDIKMLIELIRKGDEPLEIRGITIEDYAMNLIKGMMKFARPEE | not soluble
13 | PKFHQAFAMINDAISDQSTFRLSCNEALIHRITPTNTISICADTDLPSLLNDLRLKQIDLIISPTTIHNPSFISESVFEEPMVVICRQDHPRIAGKIEQERFYSEKHCRFVGDEDFPVSNTEIHQPGLQERDVEMMTTSLSGMMLYVAKHDCLGVLPLSLAQKWQSALNLQVIQTPMLSEPVSYKLIFHKRDESSTSHQRLRAWARDQFATGLNA | not soluble
14 | MDSALFKTIALIGKHKNPDIVIPLLSLAEYLTDRGISVVLDSLTAAHISNSRYPILTLEEIGKQADLAIVLGGDGTMLNIARALVPFSVPLIGINQGRLGFLTDLTADTMHETLNDMLAGQFVVENRMLLTVEVTRNGESVFKELAFNDVVLHRGISSGMIELEVHINGEYVYSLRSDGLIIATPTGSTAYALSSGGPILHPGLNLMTLVPICPHTLSNRPIVIGADATIEIKVHFTTEIKIYTDSHSWFDLSEHDRVFIQRCPETIKLLHPVHHSYYRMLREKLGWSGILQKNSRLEHHHHHH | not soluble
15 | EIQLQQSGPELVKPGASVKVSCKASGYSFTDYFIYWVKQSHGKSLEWIGDIDPYNGDTSYNQKFRDKATLTVDQSSTTAFMHLNSLTSEDSAVYFCARGLRFWGQGTLVTVSAAKTTPPSVYPLAPGSAAQTNSMVTLGCLVKGYFPEPVTVTWNSGSLSSGVHTFPAVLQSDLYTLSSSVTVPSSTWPSETVTCNVAHPASSTKVDKKIVPRDCG | soluble
16 | MDLPQEIETNMECPVCGSLLYLLTYDTDIPYEGRISIYTYQCKKCMYRKTEVYQEEEKNPVRITLKIESPEDLKTLVYRSRKADIYIPEIEASIDSAEYANGEITTVEGIIYRIGEKLDLLSYDDEEKEAVKEVRKKIDDIINGYFGSFTLIITDESGKSVIESEKAITEKILEHHHHHH | not soluble
17 | MLKKYLISLDKDIQRRELFFSQKNTEDFQVFSAINTMQKDWDELAAIFNIEQFKAHYFRNVTKGEIGCTLSHLSVYQKIVEDNDIAEDSYALVCEDDALFHSDFQQNLTALLSEKLEAEIILLGQSKINDFNDFDLEINYPTTFSFLCKKTGDVNYAFPYKSYFAGTVGYLIKKSAARRFIQQISQNKPFWLADDFLLFEQNFNIRNKVVRPLIVIENPVLISNLESVRGSLSNNLLKKLMKYPLKKIFAIKKNLAN | soluble
18 | MGSDKIHHHHHHMSTFHPHPPTQNRLLAALPPIELDDLAPHLELVHLLPGDVLCKAGKQLSYAYFPTSSVISIHCLLENGTLSELTSVGREGMLGVSLFMGGEDTQSSATVQSAGYGYRLNAAFLLQEFNEGGMLQRLLLRYSHALVTEAAQNVICSRYHTAQQRLCRWLMSTWDRLGSQELVLTQESIASILGIRRESVTAIARRLQEAGTICYRRGRIMVNDQAALQRESCECYDIIKKEFDGVFDDVRVCEKARQNSINAANAL | not soluble
19 | HKPWRAEYAKSSRSSCKTCKSVINKENFRLGKLVQSTHFDGIMPMWNHASCILKKTKQIKSVDDVEGIESLRWEDQQKIRKYVESGAGSNTSTSTGTSTSS | soluble
20 | MGSDKIHHHHHHADPFASITHLVDSAMVNKTDSIDREKTSDEPKPIEADESFDDFIYNFASDDALQRQRVVFPLPYYNGERASKIDRKYWKHDDLFAKQSYYTLLFDREEDMDLVGDTSLTSVQVEWIFVKKRMVKKYYFERIKGAWMLEAINLRPIEENENEDFVEFFGHFATDSIFQSRRIRQPLVFVTTDPDDDFSILETTLDLNQWFAFKPALPADKLSNINYGQQNDDNASHKILALKGIGNGFSNILYFQRKDSGWELYKFEDTSI | not soluble
21 | MSERLFVLSQHILPKLALTRLAGRFADWKGGGITTAAIRRFIARYNVDMGEAADSDPAAYATFNDFFTRALKPGVRPVADARLVCPVDGAVSQLGAIDSGRIFQAKGRDYSATALLAGDADLAARFADGHFATIYLSPRDYHRIHMPCAGRLLEMTYVPGDLYSVNPATARGVDRLFARNERVVCVFEDEQSQPFVMVLVGATIVGSMATVWHGVVNPPRRPAVEKWDYRGQDIRLAKGEEMGRFLLGSTVVLLYPAGPLKFNPQWQAASPVRMGEAMASLEHHHHHH | not soluble
22 | MIRYKIYQNQQKKGLNAGKWFARAVSDETFDLSKLAEHMSKHNSPYSSGVIKGVLTDMVDCIKELLLDGKSVKIDDLAIFGVGIRSKAAETLEEFSLEKNITGMRLKARATGNLSTTNLKLDSQLKQQAEYQKPTTPGGGGSGSGNTPDPKPNPDEGDEEAPDPTV | not soluble
23 | MSFEKLQKELHEAIEGVNRYNPENVADLAACVQAMVNENKYDKDIVLTILKLYQLNPEKYDEAVVRQVLLKTLMVLPSSDFALAKCLIDTNRLGSQELRRIFDLGAVLESCNFAVFWKLVKGAYKPTTNPNEPFKVPGEVPKMIKPMVGFEDAVKHYACRVISVTFQKIEKKMLSRLLGGASDKEVTALAQSFGWEAKENGDVFFVANHEGTIKTRNIDEKIQFPHVADLLTSIQPPLTL | not soluble
24 | FMQEPEAIETALHRLSDHDLIVIQVLDPTEKVLPLQGNSKLVDLETGEEIRTYISDNFKERYTRKLDDHSARIKKTCMKVGAEFYTFTTDTPVFNAFYNTIRRRRR | not soluble
25 | SAMLSSTMKIEALLTEKHINLNLGSSSKDEVIDTLIAMVADHDKVRDLKQLAEDVRKREREMSTGIGKNIGLPHAKTSAVTEPVLALATLSNEVDFESIDNQPVKIVFLLATPETMLAEHLKLLGRITRLAGRDDVRRKLIDAATPADVLELFKQEERDLPQI | not soluble
26 | MTMVQPSGGGASGRGSSSGLADVIDTILDKGLVIDAFVRVSVVGIEILTIDARIVVASVDTYLRFAEATNRLDLTQTGGKGLPEVLQDTTQGVSKSKTKGIAQGALETAGEKLRDIIGEPEEEEEPAPRRRRRREEE | not soluble
